± gives the uncertainty stated by the source.
assay: amyloid nucleation score (Sup35N fusion, yeast selection) (log enrichment); library NNK3; higher = more nucleation; inactive = no reads after selection
Outline: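 Peptides of 20 random codons fused to Sup35N were expressed in psi-negative yeast, induced 24 hours with 100 μM copper sulfate, then grown 7 days at 30°C on medium lacking adenine and uracil. Input and output plasmid inserts were Illumina-sequenced. Nucleation score is the DiMSum log enrichment of output over input reads, centred on the mode score of non-aggregating sequences, excluding sequences with under 100 input reads. Random libraries had three technical output replicates.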

Substance	amyloid nucleation score
KCRGGRETIRLRRSLWVFMV	inactive
KDIYYTSFILPDEWITG	inactive
KDLKMYRGF	inactive
KDLNENGRLFIIDPIIFSMF	inactive
KDMMWDVSRPYFYLVTYQIG	inactive
KDNKGMGRMFSNILFFTISL	0.663 ± 0.13
KDTRIQLVNNFICGDSLE	inactive
KDWQTIYQLRSVTFFDLLVV	inactive
KDYGLADGERHESM	inactive
KEAPIWRKKGQNLLLPVSGW	inactive
KEFAIESTVLFYTVLLKAAH	inactive
KEFCVRPLYRFSVRMNIC	0.035 ± 0.62
KERCLVSHCTTLCALFLRVI	inactive
KERIQCYMRLPRFIN	inactive
KFCLWYSGTNELDLCEPSMT	inactive
KFFYCERVLSGNRVKRHERI	0.676 ± 0.21
KFHIFFCSFCVPPE	3.17 ± 0.082
KFLPGCCFYMRIMSQVSLKN	inactive
KFWLKVHFYEHKWSWVMFEC	inactive
KFYAYSEDMVSQYI	inactive
KFYDSISRLQNERGPVIFPR	inactive
KGALRFITYSSMLVYYLNLG	inactive
KGCVRSGQIWLRCIWSQYP	inactive

Substance	amyloid nucleation score
KGETDFVLKP	-0.432 ± 0.87
KGFSFLRIRRMGLWTVSGYG	inactive
KGQYLSIGYNNFRG	-0.764 ± 1.8
KGSDFSEFVAWRLLTAYRVP	inactive
KGTYGFAINHHYIA	inactive
KGYRINSNFNKFNKPLCSAI	inactive
KHFLQVVRSSNRTVSARFPL	inactive
KIDAN	inactive
KIFTWIRCNLSIFYSYGFKS	inactive
KIMSYHIHVMFLLDYMKDRS	1.28 ± 0.15
KINGIDSSGMCAISLIKKGA	inactive
KINKREWRRFTVYSVFSHVS	0.435 ± 0.35
KINRVSLLVLGH	inactive
KISSQIYMCRKTNSSDRTMM	inactive
KIWFCNWFANNYFMIANSST	0.627 ± 0.11
KIYANHLL	inactive
KKGGLLLLNKYN	inactive
KLAKHH	inactive
KLDLQSSFLFLGSVHV	inactive
KLGIRPDRISVTWCLSNTTV	-0.473 ± 1.3
KLKFMPRLSHKWDRDQLRVH	inactive
KLLLMGCRDVYFSYRIFM	3 ± 0.054
KLMPVIVTFNRYFFGQVMEE	1.2 ± 0.14

Substance	amyloid nucleation score
KLMVNNQFISISINMSRCLF	1.63 ± 0.098
KLNILKTGMLCYVPHLIAHI	inactive
KLPNYLYRLSLFPVTLVSTM	inactive
KLYESYASIRNNGCLRCSNS	inactive
KMCIDFEPELYNLFLLAFHQ	inactive
KMSLGLRCYSAYKEPLVQGE	-0.055 ± 1.1
KMTGLWLNVAVSDAFLEYDE	1.46 ± 0.13
KNDSVKSKCVSIGVPVPLLV	inactive
KNLGIG	inactive
KNMWTGSFDVFRRWPISLKG	inactive
KNSASLFL	inactive
KNSLDALFYVTALFCTLSGD	-0.122 ± 0.38
KNVTFTCHWTSKSLNMYYEE	0.512 ± 0.29
KPCSRVSWNVVQVV	inactive
KPWMVEAPFERA	inactive
KQRVASTTTVAPHPKNKD	inactive
KQTFKYTGVDHTVT	inactive
KRASMPVPGSSWLHQFKE	inactive
KRDEVVKFLLDGVGASGYNA	inactive
KRDTSWLPVCNSGLSQCRKR	inactive
KRFDMMHIQTYEMGWSPSVR	inactive
KRFVFPLLIR	inactive
KRKQVSFTH	inactive

Substance	amyloid nucleation score
KRWGEPYRMIVGYMVRYMVT	2 ± 0.089
KRYNRFIGHLMTLYRASMGD	-0.714 ± 0.88
KSCWLSYGFQLFIGVMNMH	1.29 ± 0.079
KSGYCNKCMNGFSGTLTSNY	inactive
KSLSGVIREENRDARGFWRS	inactive
KSPVWIQIPLMCFLLEFVLG	0.471 ± 0.2
KSQYTSASP	inactive
KSRERFLCSKGMSPQQTHMY	inactive
KSRKFYKTSLCLMNTYLMNM	inactive
KSSMKLLSPP	inactive
KSTICACTLIMVNTPFMLSM	1.36 ± 0.11
KSVVGFFVSARYCCTLGTGG	inactive
KSWNGQMYCVASGKQKTIMY	inactive
KSWVIKLSGFVETWHRMD	inactive
KSYLAVVSYFGFTKKADPTG	inactive
KTDIPGNHFLTSARLCAG	inactive
KTLYTDSS	0.114 ± 0.58
KTWVSIVSGLKADSGGGLHA	inactive
KVAILVHILNNLVRVRVCFN	inactive
KVARIVPRFKRQDYTALILD	inactive
KVCGCSILLLKLRGVNRVVS	inactive
KVCHSWVWHILGSLDYITRG	inactive
KVGAGIDIISFIRNLILALP	inactive

Substance	amyloid nucleation score
KVGFLFDGLFIFGGR	inactive
KVIDGFLTLLSVNHRCKAWQ	inactive
KVIDGVDAMWCMKVFWV	inactive
KVTYFKSMMHYDNMQSSVRC	inactive
KWNRLLVMRLAVIECRARVA	0.033 ± 0.9
KWYIMCLVNILVEVIIFNYF	inactive
KWYQVGSVLKRIRLNILRG	-1.51 ± 2.4
KYDVGVYLYLLLPTNCRQQW	1.46 ± 0.12
KYGVLLRIHR	0.499 ± 0.72
KYHMFRWGLSC	inactive
KYKSVCVKFNEDLTG	inactive
KYLLLKRNARQRLHTVCHQA	inactive
KYMGAVFYIIHRTEERYF	0.874 ± 0.13
KYSTSPNFKIIQVLMGLPLR	inactive
KYVVSYLGFKFGWKHYSKYY	inactive
KYVYYSFLERSFDYMYFSRQ	inactive
KYYINVVNRRYLNYFGTWLF	0.617 ± 0.12
LAAICYEVFGCGTWMGC	inactive
LAFADRITGYGWSGTVRMMW	inactive
LAKHSFSFGVYCNSRNSVMY	inactive
LASFEIRNREY	0.519 ± 0.33
LATRWRCCSCNAWS	-0.593 ± 1.1
LAVGRTWMLVANWDSMGQIV	inactive

Substance	amyloid nucleation score
LAYVHMGGIARWLC	inactive
LCCAPNADFWIN	inactive
LCCGKCRPGPKFCTKISHTN	inactive
LCCSCWLLIDCQWKDGYLEG	1.91 ± 0.079
LCIPVDFVGGTIRLCVL	inactive
LCKSMRNDSLDYFLHCPGML	inactive
LCLFRTRVIGVS	inactive
LCLHERCDALSFDDNPYSTR	inactive
LCMFPLIWFILLFRFFKLWG	inactive
LCMQFNLVWRYDRRETINSE	1.16 ± 0.11
LCRKPFDVGLGRV	inactive
LCRSGIFKSYWNITMFFKFL	inactive
LCTLMCTQFNYFVSETWLVP	2.25 ± 0.093
LCTLSCFAICD	0.74 ± 0.18
LCVMCCATSFSHVCILIYRI	inactive
LCVYTYTSTHAVFFIVFDSR	inactive
LCWTVVIHVRTAVRIWLTSR	inactive
LCYAWRSGSNTYMHMMNWSM	inactive
LDAVNF	inactive
LDFRLFGFPDKNEHYGGEYK	inactive
LDFRSVTDVWSCYI	inactive
LDGRYKYILFLLPLCRW	inactive
LDKAHHHLETAKLLLAWGVI	inactive

Substance	amyloid nucleation score
LDKFHCRFYMQNSN	inactive
LDLLHFGYFIYFDEL	inactive
LDMQEPPVNAVRHYLSL	inactive
LDRSVMIRFGLELMRWSSGG	0.356 ± 0.35
LDTSD	inactive
LDTYTRNYLD	inactive
LDYNVRVGIVSRFTQLTHVN	inactive
LDYPNVCMDFLSKVFRDSVR	inactive
LEFSYPCRWA	inactive
LEGLMANVMRGFRSVVPATW	inactive
LEGSKKSDSSLARSWYFFET	inactive
LELGTLTNRSLCFCEILPFC	inactive
LESLPINNEFSMQSYTRIVI	inactive
LFCLLLHNIGKFRYMFY	inactive
LFDALYLEVTLGSSMVYVKN	inactive
LFELDKLNRVHLNGVMGVII	inactive
LFFSRS	inactive
LFFYFLEPR	inactive

— the supplement of paper PMC12042874
